The values that follow come from patent US20100221257A1 (AstraZeneca / MedImmune, published 2010).

The target in assay [1] is T1, human recombinant IL1sRII (human, UniProt P27930 14-343).
T1 construct: also called Human IL1sRII
T1 sequence (looked up): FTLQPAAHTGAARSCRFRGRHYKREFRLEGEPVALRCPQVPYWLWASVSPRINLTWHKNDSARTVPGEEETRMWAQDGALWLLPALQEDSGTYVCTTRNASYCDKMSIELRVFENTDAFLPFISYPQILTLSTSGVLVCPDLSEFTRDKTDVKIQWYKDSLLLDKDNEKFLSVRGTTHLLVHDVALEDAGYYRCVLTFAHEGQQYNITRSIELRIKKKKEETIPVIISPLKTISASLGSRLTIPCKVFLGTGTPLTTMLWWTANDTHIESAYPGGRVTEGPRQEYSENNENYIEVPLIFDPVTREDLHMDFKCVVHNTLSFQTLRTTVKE
The assay is described as follows: DELFIA epitope competition; no inhibition of biotinylated huIL-1RFc binding to the adsorbed IgG. As for the experimental part: (§1) Titrations of non biotinylated purified human recombinant IL1sRII (R&D Systems), human recombinant IL-1R6/IL1 R rpt/Fc (R&D Systems), human recombinant IL18R alpha/IL-1 R5/Fc (R&D systems) and recombinant human IL-1 R4 (ST2)/Fc (R&D systems) were tested in each assay to establish the potency for each structurally related family member, as measured by IC₅₀ values in the assay.
(§2) Purified IgG were adsorbed onto 96-well Maxisorp microtitre plates (Nunc) in PBS at a concentration which gave a significant signal when biotinylated human HIS IL1RFc was added at approximately its estimated KD for that particular IgG. Excess IgG was washed away with PBS-Tween (0.1% v/v) and the wells were blocked with non-fat dried milk in PBS (3% w/v) for 1 h. […] Non-biotinylated human HIS IL1RFc was included as a positive control. 25 μl of this dilution series was added to the blocked IgG assay plate.
(§3) 25 μl of 1.4 nM biotinylated human HIS IL1RFc was added to the assay plate. The plate was then sealed and incubated at room temperature for 2 h. Unbound antigen was removed by washing with PBS-Tween (0.1% v/v), while the remaining biotinylated human IL1RFc was detected by streptavidin-Europium3+ conjugate (DELFIA® detection, PerkinElmer). Time-resolved fluorescence was measured at 620 nm on an EnVision plate reader (PerkinElmer). Fluorescence data was plotted as europium counts. IC₅₀ values were determined using GraphPad Prism software by curve fitting using a four-parameter logistic equation (Equation 3).

The target in assay [2] is T2, recombinant human IL-1 R4 (ST2)/Fc (human, UniProt Q01638-2 19-328, limits assumed).
T2 construct: Bought; not shown: Fc of the bought fusion protein, not described
T2 sequence (looked up): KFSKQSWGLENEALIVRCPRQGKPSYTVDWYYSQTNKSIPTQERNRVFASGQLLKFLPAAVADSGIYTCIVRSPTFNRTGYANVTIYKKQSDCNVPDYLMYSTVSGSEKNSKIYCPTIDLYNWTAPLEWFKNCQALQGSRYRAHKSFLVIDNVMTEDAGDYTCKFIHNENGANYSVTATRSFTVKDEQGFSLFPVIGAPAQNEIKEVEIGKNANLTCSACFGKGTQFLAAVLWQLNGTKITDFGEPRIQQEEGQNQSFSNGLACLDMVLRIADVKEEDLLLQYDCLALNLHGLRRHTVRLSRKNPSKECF
Described as above. The procedure: as §1, §2, §3

Assay [3] concerns the target T3, human recombinant IL18R alpha/IL-1 R5/Fc (human, UniProt Q13478 19-329, limits assumed).
T3 construct: Bought; also called IL18R alpha Fc; not shown: Fc of the bought fusion protein, not described
T3 sequence (looked up): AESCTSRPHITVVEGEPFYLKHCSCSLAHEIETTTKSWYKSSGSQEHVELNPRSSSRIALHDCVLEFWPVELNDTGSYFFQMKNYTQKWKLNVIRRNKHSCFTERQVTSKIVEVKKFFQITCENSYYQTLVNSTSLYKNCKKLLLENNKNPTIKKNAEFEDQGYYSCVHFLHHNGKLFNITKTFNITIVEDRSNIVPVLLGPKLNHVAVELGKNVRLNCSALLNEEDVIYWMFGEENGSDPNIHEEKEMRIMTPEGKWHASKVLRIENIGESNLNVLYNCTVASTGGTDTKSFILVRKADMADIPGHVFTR
Described as above. As for the experimental part: as §1, §2, §3

For assay [4], the target named is T4, human recombinant IL-1R6/IL1 R rp2/Fc (human, UniProt Q9HB29 20-335, limits assumed).
T4 construct: Bought; also called Human IL1R6Fc; not shown: Fc of the bought fusion protein, not described
T4 sequence (looked up): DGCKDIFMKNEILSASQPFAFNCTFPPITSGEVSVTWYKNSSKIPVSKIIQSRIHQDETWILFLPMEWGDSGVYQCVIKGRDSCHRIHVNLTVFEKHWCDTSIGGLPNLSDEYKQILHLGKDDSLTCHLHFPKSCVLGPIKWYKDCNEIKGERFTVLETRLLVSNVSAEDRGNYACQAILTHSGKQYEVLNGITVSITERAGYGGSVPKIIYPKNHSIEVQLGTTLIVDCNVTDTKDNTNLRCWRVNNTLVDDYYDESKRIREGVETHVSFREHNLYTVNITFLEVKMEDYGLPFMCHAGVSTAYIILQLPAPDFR
The assay is described as above. The procedure: as §1, §2, §3

The target of assay [5] is T5, human IL-1R1, endogenous on human cells (HeLa cells; whole blood) (human, UniProt P14778 18-569).
T5 sequence (looked up): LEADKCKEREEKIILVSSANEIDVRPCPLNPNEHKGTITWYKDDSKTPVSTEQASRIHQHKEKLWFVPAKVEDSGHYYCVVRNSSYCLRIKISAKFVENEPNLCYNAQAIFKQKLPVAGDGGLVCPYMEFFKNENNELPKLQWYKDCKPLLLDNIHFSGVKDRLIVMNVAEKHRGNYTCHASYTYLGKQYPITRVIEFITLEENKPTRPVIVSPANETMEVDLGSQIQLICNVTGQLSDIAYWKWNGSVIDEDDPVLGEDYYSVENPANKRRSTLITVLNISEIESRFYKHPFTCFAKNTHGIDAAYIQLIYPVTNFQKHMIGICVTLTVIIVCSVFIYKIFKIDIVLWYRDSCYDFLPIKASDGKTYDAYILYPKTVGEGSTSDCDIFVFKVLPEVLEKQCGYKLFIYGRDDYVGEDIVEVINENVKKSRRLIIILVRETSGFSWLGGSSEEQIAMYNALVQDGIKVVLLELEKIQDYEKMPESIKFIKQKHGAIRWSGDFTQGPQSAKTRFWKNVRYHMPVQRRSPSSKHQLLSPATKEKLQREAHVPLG
The assay is described as follows: cell-based or functional assay.

B1: Antibody 6GL IgG2 (antibody, V domains shown)
VH: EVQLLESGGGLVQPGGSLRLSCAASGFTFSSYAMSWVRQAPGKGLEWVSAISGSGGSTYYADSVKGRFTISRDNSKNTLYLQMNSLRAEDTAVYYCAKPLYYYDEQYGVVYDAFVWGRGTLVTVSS
VL: QSVLTQPPSVSGAPGQRVTISCTGSSSNIGAGYDVHWYQQLPGTAPKLLIYGDTHRPSGVPDRFSGSKSGTSASLAITGLQAEDEADYYCQSYDTVRLHHVFGGGTKLTVL
notes: Germlined IgG2, lambda light chain; also called Antibody 6 IgG2; 28PL GL
Consider B1, for which the binding result in assay [1], in assay [2], in assay [3] and in assay [4] was “no binding” each time. The “IC50, inhibition of IL-1 alpha induced IL-8 release in HeLa cells (GL IgG2)” value in assay [5] was found to be 0.0031 nM. Further, in assay [5], the “IC50, inhibition of IL-1 beta induced IL-8 release in HeLa cells (GL IgG2)” value came to 0.0119 nM.

B2: Antibody 10GL IgG2 (antibody, V domains shown)
VH: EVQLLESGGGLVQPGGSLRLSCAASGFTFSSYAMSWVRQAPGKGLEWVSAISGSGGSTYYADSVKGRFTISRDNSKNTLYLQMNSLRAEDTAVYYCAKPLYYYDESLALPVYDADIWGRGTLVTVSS
VL: QSVLTQPPSVSGAPGQRVTISCTGSSSNIGAGYDVHWYQQLPGTAPKLLIYGDTHRPSGVPDRFSGSKSGTSASLAITGLQAEDEADYYCQSYDTRADDAHFGGGTKLTVL
notes: Germlined IgG2, lambda light chain
On to B2, for which the binding result in assay [1], in assay [2], in assay [3] and in assay [4] was “no binding” each time. Further, the “IC50, inhibition of IL-1 alpha induced IL-8 release in HeLa cells (GL IgG2)” value in assay [5] came out at 0.0138 nM. Further, the “IC50, inhibition of IL-1 beta induced IL-8 release in HeLa cells (GL IgG2)” value in assay [5] turned out to be 0.0242 nM.

B3: Antibody 8GL IgG2 (antibody, V domains shown)
VH: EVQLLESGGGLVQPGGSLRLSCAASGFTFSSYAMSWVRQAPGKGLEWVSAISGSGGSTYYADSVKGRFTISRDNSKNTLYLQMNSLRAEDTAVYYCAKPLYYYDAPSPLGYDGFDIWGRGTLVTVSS
VL: QSVLTQPPSVSGAPGQRVTISCTGSSSNIGAGYDVHWYQQLPGTAPKLLIYGDTHRPSGVPDRFSGSKSGTSASLAITGLQAEDEADYYCQSYDTHLVAHVFGGGTKLTVL
notes: as for B2
For the molecule B3, the binding result in assay [1], in assay [2], in assay [3] and in assay [4] was “no binding” in each case. Moreover, the “IC50, inhibition of IL-1 alpha induced IL-8 release in HeLa cells (GL IgG2)” value in assay [5] worked out at 0.197 nM. For the same molecule, the “IC50, inhibition of IL-1 beta induced IL-8 release in HeLa cells (GL IgG2)” value in assay [5] was found to be 0.0419 nM.
